Measured values taken from the supplement of paper PMC11246515.
± gives the standard deviation of the averaged measurements.

Assay: total protein half-life in vivo (active degradation + dilution); higher = more stable protein
[1] = E. coli NCM3722 delta-clpP delta-lon delta-hslV, growth: N-lim chemostat, doubling time 6 h
[2] = wild type E. coli NCM3722, growth: C-lim chemostat, doubling time 3 h
[3] = wild type E. coli NCM3722, growth: C-lim chemostat, doubling time 6 h
[4] = wild type E. coli NCM3722, growth: C-lim chemostat, doubling time 12 h
[5] = wild type E. coli NCM3722, growth: N-lim chemostat, doubling time 12 h
[6] = wild type E. coli NCM3722, growth: P-lim chemostat, doubling time 12 h
[7] = E. coli NCM3722 delta-hslV, growth: N-lim chemostat, doubling time 6 h
[8] = E. coli NCM3722 delta-smpB, growth: N-lim chemostat, doubling time 6 h
[9] = wild type E. coli NCM3722, growth: N-lim chemostat, doubling time 6 h
[10] = wild type E. coli NCM3722, growth: P-lim chemostat, doubling time 6 h
[11] = E. coli NCM3722 delta-clpP, growth: N-lim chemostat, doubling time 6 h
[12] = E. coli NCM3722 delta-lon, growth: N-lim chemostat, doubling time 6 h

## MELATTQSVLMQIQPTIQRFARMLASVLQLEVEIVDENLCRVAGTGAYGKFLGRQLSGNSRLLRHVLETKTEKVVTQSRFDPLCEGCDSKENCREKAFLGTPVILQDRCVGVISLIAVTHEQQEHISDNLREFSDYVRHISTIFVSKLLEDQGPGDNISKIFATMIDNMDQGVLVVDDENRVQFVNQTALKTLGVVQNNIIGKPIRFRPLTFESNFTHGHMQHIVSWDDKSELIIGQLHNIQGRQLFLMAFHQSHTSFSVANAPDEPHIEQLVGECRVMRQLKRLISRIAPSPSSVMVVGESGTGKEVVARAIHKLSGRRNKPFIAINCAAIPEQLLESELFGYVKGAFTGASANGKTGLIQAANTGTLFLDEIGDMPLMLQAKLLRAIEAREILPIGASSPIQVDIRIISATNQNLAQFIAEGKFREDLFYRLNVIPITLPPLRERQEDIELLVHYFLHLHTRRLGSVYPGIAPDVVEILRKHRWPGNLRELSNLMEYLVNVVPSGEVIDSTLLPPNLLNNGTTEQSDVTEVSEAHLSLDDAGGTALEEMEKQMIREALSRHNSKKQVADELGIGIATLYRKIKKYELLNT
[1]
  total protein half-life in vivo: 4.91 ± 0.062 h
[2]
  total protein half-life in vivo: 1.46 ± 0.072 h
[3]
  total protein half-life in vivo: 2.41 ± 0.17 h
[4]
  total protein half-life in vivo: 2.87 ± 0.29 h
[5]
  total protein half-life in vivo: 1.52 h
[6]
  total protein half-life in vivo: 2.56 h

## MAYQSQDIIRRSATNGLTPAPQARDFQEEVAKLIDVTTCIGCKACQVACSEWNDIRDTVGNNIGVYDNPNDLSAKSWTVMRFSEVEQNDKLEWLIRKDGCMHCSDPGCLKACPAEGAIIQYANGIVDFQSEQCIGCGYCIAGCPFDIPRLNPEDNRVYKCTLCVDRVVVGQEPACVKTCPTGAIHFGTKESMKTLASERVAELKTRGYDNAGLYDPAGVGGTHVMYVLHHADKPNLYHGLPENPEISETVKFWKGIWKPLAAVGFAATFAASIFHYVGVGPNRADEEENNLHEEKDEERK [P0AAJ5]
[1]
  total protein half-life in vivo: 4.44 ± 0.47 h
[7]
  total protein half-life in vivo: 3.37 h
[8]
  total protein half-life in vivo: 3.15 h
[3]
  total protein half-life in vivo: 6.15 h
[4]
  total protein half-life in vivo: 7.88 h
[9]
  total protein half-life in vivo: 5.98 ± 0.62 h
[10]
  total protein half-life in vivo: 5.29 h

## MKTFPLQSLTIIEAQQKQFALVDSICRHFPGSEFLTGGDLGLTPGLNQPRVTQRVEQVLADAFHAQAAALVQGAGTGAIRAGLAALLKPGQRLLVHDAPVYPTTRVIIEQMGLTLITVDFNDLSALKQVVDEQQPDAALVQHTRQQPQDSYVLADVLATLRAAGVPALTDDNYAVMKVARIGCECGANVSTFSCFKLFGPEGVGAVVGDADVINRIRATLYSGGSQIQGAQALEVLRGLVFAPVMHAVQAGVSERLLALLNGGAVPEVKSAVIANAQSKVLIVEFHQPIAARVLEEAQKRGALPYPVGAESKYEIPPLFYRLSGTFRQANPQSEHCAIRINPNRSGEETVLRILRESIASI
[1]
  total protein half-life in vivo: 5.7 ± 0.96 h
[11]
  total protein half-life in vivo: 5.48 h
[7]
  total protein half-life in vivo: 4.47 h
[12]
  total protein half-life in vivo: 4.71 h
[9]
  total protein half-life in vivo: 4.59 h
[5]
  total protein half-life in vivo: 8.25 h
[10]
  total protein half-life in vivo: 5.35 h
[6]
  total protein half-life in vivo: 12.4 h

## MDNLDVICIGAAIVDIPLQPVSKNIFDVDSYPLERIAMTTGGDAINEATIISRLGHRTALMSRIGKDAAGQFILDHCRKENIDIQSLKQDVSIDTSINVGLVTEDGERTFVTNRNGSLWKLNIDDVDFARFSQAKLLSLASIFNSPLLDGKALTEIFTQAKARQMIICADMIKPRLNETLDDICEALSYVDYLFPNFAEAKLLTGKETLDEIADCFLACGVKTVVIKTGKDGCFIKRGDMTMKVPAVAGITAIDTIGAGDNFASGFIAALLEGKNLRECARFANATAAISVLSVGATTGVKNRKLVEQLLEEYEG
[1]
  total protein half-life in vivo: 4.78 h
[11]
  total protein half-life in vivo: 4.22 h
[7]
  total protein half-life in vivo: 5.06 ± 0.82 h
[12]
  total protein half-life in vivo: 4.44 ± 0.44 h
[8]
  total protein half-life in vivo: 4.11 ± 0.23 h
[2]
  total protein half-life in vivo: 3.18 ± 0.49 h
[3]
  total protein half-life in vivo: 5.08 ± 0.33 h
[4]
  total protein half-life in vivo: 10.1 ± 0.27 h
[9]
  total protein half-life in vivo: 4.39 ± 0.065 h
[5]
  total protein half-life in vivo: 7.58 ± 0.17 h
[10]
  total protein half-life in vivo: 3.97 h
[6]
  total protein half-life in vivo: 7.77 ± 1.9 h

## MRTFSGKRSTLALAIAGVTAMSGFMAMPEARAEGFIDDSTLTGGIYYWQRERDRKDVTDGDKYKTNLSHSTWNANLDFQSGYAADMFGLDIAAFTAIEMAENGDSSHPNEIAFSKSNKAYDEDWSGDKSGISLYKAAAKFKYGPVWARAGYIQPTGQTLLAPHWSFMPGTYQGAEAGANFDYGDAGALSFSYMWTNEYKAPWHLEMDEFYQNDKTTKVDYLHSFGAKYDFKNNFVLEAAFGQAEGYIDQYFAKASYKFDIAGSPLTTSYQFYGTRDKVDDRSVNDLYDGTAWLQALTFGYRAADVVDLRLEGTWVKADGQQGYFLQRMTPTYASSNGRLDIWWDNRSDFNANGEKAVFFGAMYDLKNWNLPGFAIGASYVYAWDAKPATWQSNPDAYYDKNRTIEESAYSLDAVYTIQDGRAKGTMFKLHFTEYDNHSDIPSWGGGYGNIFQDERDVKFMVIAPFTIF
[2]
  total protein half-life in vivo: 1.45 h
[3]
  total protein half-life in vivo: 2.07 h
[4]
  total protein half-life in vivo: 2.36 h

## MTVQTSKNPQVDIAEDNAFFPSEYSLSQYTSPVSDLDGVDYPKPYRGKHKILVIAADERYLPTDNGKLFSTGNHPIETLLPLYHLHAAGFEFEVATISGLMTKFEYWAMPHKDEKVMPFFEQHKSLFRNPKKLADVVASLNADSEYAAIFVPGGHGALIGLPESQDVAAALQWAIKNDRFVISLCHGPAAFLALRHGDNPLNGYSICAFPDAADKQTPEIGYMPGHLTWYFGEELKKMGMNIINDDITGRVHKDRKLLTGDSPFAANALGKLAAQEMLAAYAG
[1]
  total protein half-life in vivo: 5.25 ± 1.1 h
[11]
  total protein half-life in vivo: 5.29 ± 1.6 h
[7]
  total protein half-life in vivo: 4.05 ± 0.35 h
[12]
  total protein half-life in vivo: 4.62 ± 0.19 h
[8]
  total protein half-life in vivo: 4.27 ± 0.24 h
[2]
  total protein half-life in vivo: 2.88 ± 0.26 h
[3]
  total protein half-life in vivo: 5.19 ± 0.35 h
[4]
  total protein half-life in vivo: 10.6 ± 0.23 h
[9]
  total protein half-life in vivo: 3.97 ± 0.85 h
[5]
  total protein half-life in vivo: 7.51 ± 0.27 h
[10]
  total protein half-life in vivo: 5.31 ± 0.43 h
[6]
  total protein half-life in vivo: 10.5 ± 1.5 h

## MKALTARQQEVFDLIRDHISQTGMPPTRAEIAQRLGFRSPNAAEEHLKALARKGVIEIVSGASRGIRLLQEEEEGLPLVGRVAAGEPLLAQQHIEGHYQVDPSLFKPNADFLLRVSGMSMKDIGIMDGDLLAVHKTQDVRNGQVVVARIDDEVTVKRLKKQGNKVELLPENSEFKPIVVDLRQQSFTIEGLAVGVIRNGDWL [P0A7C2]
[1]
  total protein half-life in vivo: 3.01 ± 0.14 h
[11]
  total protein half-life in vivo: 2.31 ± 0.15 h
[7]
  total protein half-life in vivo: 3.18 ± 0.11 h
[12]
  total protein half-life in vivo: 3.9 ± 0.1 h
[8]
  total protein half-life in vivo: 3.03 ± 0.12 h
[2]
  total protein half-life in vivo: 1.91 ± 0.16 h
[3]
  total protein half-life in vivo: 3.21 ± 0.11 h
[4]
  total protein half-life in vivo: 4.65 ± 0.17 h
[9]
  total protein half-life in vivo: 3.25 ± 0.28 h
[5]
  total protein half-life in vivo: 4.784 ± 0.043 h
[10]
  total protein half-life in vivo: 2.68 ± 0.22 h
[6]
  total protein half-life in vivo: 4.77 ± 0.42 h
